Here are results for two molecules from patent US20250361314A1 (SHANGHAI HUAOTA BIOPHARMACEUTICAL, published 2025).

Experiment [1] addresses T1, Human CD73 antigen (human, UniProt P21589 27-547, limits assumed).
T1 construct: Antigen used as analyte in SPR; also called NT5E
T1 sequence (looked up): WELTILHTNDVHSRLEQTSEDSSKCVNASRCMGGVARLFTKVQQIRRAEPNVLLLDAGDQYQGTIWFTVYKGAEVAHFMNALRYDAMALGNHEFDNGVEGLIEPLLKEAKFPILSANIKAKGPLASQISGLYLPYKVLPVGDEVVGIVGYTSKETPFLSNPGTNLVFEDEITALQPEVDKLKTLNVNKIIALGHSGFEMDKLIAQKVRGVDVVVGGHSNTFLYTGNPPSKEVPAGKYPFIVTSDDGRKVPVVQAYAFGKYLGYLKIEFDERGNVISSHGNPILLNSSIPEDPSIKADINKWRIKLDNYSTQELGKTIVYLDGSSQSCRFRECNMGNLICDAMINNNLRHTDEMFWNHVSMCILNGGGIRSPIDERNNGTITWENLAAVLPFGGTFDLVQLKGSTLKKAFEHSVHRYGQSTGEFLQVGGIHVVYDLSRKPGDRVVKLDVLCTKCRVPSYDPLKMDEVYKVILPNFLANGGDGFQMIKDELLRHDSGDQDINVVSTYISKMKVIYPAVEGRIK
The experiment can be described thus: SPR (Biacore 8K), antibody captured on anti-human capture CM5 chip, antigen as analyte, 1:1 model. As for the experimental part: (§1) An Anti-Human Capture-CM5 chip (GE, #BR-1005-30) was prepared using coupling methods of a Human Antibody Capture Kit (GE, #BR-1008-39) and an amino coupling kit (GE, BR-1000-50). The chip was equilibrated at room temperature for 20-30 mins and loaded into a Biacore 8K instrument. The antigen and antibody were diluted to an experimental working concentration using an equilibration buffer. The antigens were diluted with the equilibrium buffer to 50 nM, and then diluted three-fold for seven concentration gradients, and two zero concentrations (i.e., the equilibrium buffer) and one repeat concentration (typically the lowest concentration repeat) were set. Experimental analysis was performed on 10 antigen concentrations (2 zero concentrations, 7 gradient concentrations, and 1 repeated concentration) in a cyclic manner according to an order of antibody, antigen, and regeneration. The antigen injection flow rate was 30 μL/min, the binding time was 120 s, and the dissociation time was 600 s. Following the analysis, the data was analyzed using the corresponding analysis program to confirm that there was no obvious reference binding. Using Kinetics and a 1:1 binding model, the data was fit to obtain the kinetic related parameters Ka, Kd, and KD values of the bispecific antibodies and parental control antibodies.
(In general: Surface plasmon resonance follows binding to a sensor surface in real time, without labels.)

Experiment [2] has as its target T2, Human CD39 antigen (human, UniProt P49961 38-478).
T2 construct: Antigen used as analyte in SPR; also called ENTPD1
T2 sequence (looked up): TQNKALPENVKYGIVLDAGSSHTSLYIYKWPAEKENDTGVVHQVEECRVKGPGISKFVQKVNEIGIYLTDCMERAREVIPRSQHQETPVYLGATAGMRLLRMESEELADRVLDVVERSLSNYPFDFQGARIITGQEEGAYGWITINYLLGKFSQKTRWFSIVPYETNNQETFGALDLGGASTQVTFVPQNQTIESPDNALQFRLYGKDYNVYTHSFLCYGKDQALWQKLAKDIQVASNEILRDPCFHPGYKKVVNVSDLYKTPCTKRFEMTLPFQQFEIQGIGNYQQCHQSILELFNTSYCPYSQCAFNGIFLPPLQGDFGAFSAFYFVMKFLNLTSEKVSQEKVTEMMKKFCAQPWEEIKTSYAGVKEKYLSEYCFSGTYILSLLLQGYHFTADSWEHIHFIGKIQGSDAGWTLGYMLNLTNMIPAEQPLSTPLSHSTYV
Described as above. As for the experimental part:
as §1

In experiment [3] the target is T3, Human CD39 on CHOK1-huCD39-10B6 cells overexpressing CD39 (human, UniProt P49961 1-510).
T3 sequence (looked up): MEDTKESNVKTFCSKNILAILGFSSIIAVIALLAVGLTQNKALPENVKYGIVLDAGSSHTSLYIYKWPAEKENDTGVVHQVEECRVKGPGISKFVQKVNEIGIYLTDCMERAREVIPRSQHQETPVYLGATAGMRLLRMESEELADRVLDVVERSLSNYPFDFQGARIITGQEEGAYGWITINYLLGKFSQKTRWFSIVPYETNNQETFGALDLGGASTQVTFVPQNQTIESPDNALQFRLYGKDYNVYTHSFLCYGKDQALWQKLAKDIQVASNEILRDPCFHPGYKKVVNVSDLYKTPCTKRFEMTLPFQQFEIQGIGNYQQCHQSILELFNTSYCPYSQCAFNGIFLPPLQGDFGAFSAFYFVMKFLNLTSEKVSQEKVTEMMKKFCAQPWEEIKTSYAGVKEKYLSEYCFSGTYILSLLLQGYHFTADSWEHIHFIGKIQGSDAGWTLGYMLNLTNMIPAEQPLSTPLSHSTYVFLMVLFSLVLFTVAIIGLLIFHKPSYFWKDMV
Briefly: cell-based or functional assay.

Experiment [4] deals with T1, Human CD73 antigen. The experiment can be described thus: SPR (Biacore 8K), species cross test, antibody captured on anti-human capture CM5 chip, antigen as analyte, 1:1 model. As for the experimental part: The experimental method is as follows:
An Anti-Human Capture-CM5 chip (GE, #BR-1005-30) was prepared using coupling methods of a Human Antibody Capture Kit (GE, #BR-1008-39) and an amino coupling kit (GE, BR-1000-50). The chip was equilibrated at room temperature for about 20-30 min and loaded into a Biacore 8K instrument. The antigen and antibody were diluted to an experimental working concentration using an equilibration buffer. The antigen was diluted with an equilibrium buffer to 50 nM, and then diluted three-fold for seven concentration gradients, and two zero concentrations (i.e., the equilibrium buffer) and one repeat concentration (typically the lowest concentration repeat) were set. Experimental analysis was performed on 10 antigen concentrations (2 zero concentrations, 7 gradient concentrations, and 1 repeated concentration) in a cyclic manner according to an order of antibody, antigen, and regeneration. The antigen injection flow rate was 30 μL/min, the binding time was 120 s, and the dissociation time was 600 s. Following the analysis, the data was analyzed using the corresponding analysis program to confirm that there was no obvious reference binding. Using Kinetics and a 1:1 binding model, the data was fit to obtain the kinetic related parameters Ka, Kd, and KD values of the bispecific antibodies.

The term Kd denotes the free concentration of one partner at which half of the binding sites on the other are occupied at equilibrium, for simple one-to-one binding. A low value points to a tighter complex. One may read the koff as a measure of how fast the partners let go of each other. Read a low koff as slow dissociation. In general, kon refers to a measure of how fast the partners come together.

B1: CD39/CD73 bispecific antibody 700035 (CD39-VHH-CD73-IgG) (bispecific antibody)
heavy: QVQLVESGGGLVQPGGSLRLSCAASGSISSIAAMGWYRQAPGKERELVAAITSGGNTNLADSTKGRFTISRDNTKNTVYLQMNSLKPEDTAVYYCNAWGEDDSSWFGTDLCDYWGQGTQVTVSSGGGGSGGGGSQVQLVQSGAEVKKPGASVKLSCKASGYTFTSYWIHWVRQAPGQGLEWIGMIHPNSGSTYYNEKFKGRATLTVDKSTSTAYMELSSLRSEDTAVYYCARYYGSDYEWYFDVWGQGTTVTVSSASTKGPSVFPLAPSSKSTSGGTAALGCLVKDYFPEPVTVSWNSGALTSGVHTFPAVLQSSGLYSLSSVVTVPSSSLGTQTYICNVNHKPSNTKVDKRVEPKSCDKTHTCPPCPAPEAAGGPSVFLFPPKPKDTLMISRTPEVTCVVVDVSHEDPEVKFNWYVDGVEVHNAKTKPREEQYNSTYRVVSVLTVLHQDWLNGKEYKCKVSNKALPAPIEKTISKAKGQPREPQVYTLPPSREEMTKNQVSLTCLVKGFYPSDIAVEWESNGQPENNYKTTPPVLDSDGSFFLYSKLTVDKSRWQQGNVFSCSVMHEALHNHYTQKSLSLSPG
light: DIQMTQSPSSMSASVGDRVTITCKASQNVRTAVVWYQQKPGKAPKALIYLASNRHTGVPDRFSGSGSGTDFTLTISSLQPEDFATYFCLQHWNYPYTFGQGTKLEIKRTVAAPSVFIFPPSDEQLKSGTASVVCLLNNFYPREAKVQWKVDNALQSGNSQESVTEQDSKDSTYSLSSTLTLSKADYEKHKVYACEVTHQGLSSPVTKSFNRGEC
Take B1: in experiment [1], the Kd amounted to 0.341 nM, the dissociation rate constant (koff) came to 0.000319 s⁻¹ and the kon was found to be 935000 M⁻¹ s⁻¹. In experiment [2], this molecule had a Kd of 0.0708 nM, a dissociation rate constant (koff) of 9.28e-05 s⁻¹ and an on-rate (kon) of 1.31e+06 M⁻¹ s⁻¹. The “EC50 (µg/mL), inhibition of CD39 ATPase activity on CHOK1-huCD39-10B6 cells (CellTiter Glo)” value in experiment [3] stood at 0.208 µg/mL. For the same molecule, in experiment [4], the Kd turned out to be 0.341 nM, the off-rate (koff) is 0.000319 s⁻¹ and the kon came to 935000 M⁻¹ s⁻¹.

B2: CD39/CD73 bispecific antibody 700038 (CD39-VHH-CD73-IgG) (bispecific antibody)
heavy: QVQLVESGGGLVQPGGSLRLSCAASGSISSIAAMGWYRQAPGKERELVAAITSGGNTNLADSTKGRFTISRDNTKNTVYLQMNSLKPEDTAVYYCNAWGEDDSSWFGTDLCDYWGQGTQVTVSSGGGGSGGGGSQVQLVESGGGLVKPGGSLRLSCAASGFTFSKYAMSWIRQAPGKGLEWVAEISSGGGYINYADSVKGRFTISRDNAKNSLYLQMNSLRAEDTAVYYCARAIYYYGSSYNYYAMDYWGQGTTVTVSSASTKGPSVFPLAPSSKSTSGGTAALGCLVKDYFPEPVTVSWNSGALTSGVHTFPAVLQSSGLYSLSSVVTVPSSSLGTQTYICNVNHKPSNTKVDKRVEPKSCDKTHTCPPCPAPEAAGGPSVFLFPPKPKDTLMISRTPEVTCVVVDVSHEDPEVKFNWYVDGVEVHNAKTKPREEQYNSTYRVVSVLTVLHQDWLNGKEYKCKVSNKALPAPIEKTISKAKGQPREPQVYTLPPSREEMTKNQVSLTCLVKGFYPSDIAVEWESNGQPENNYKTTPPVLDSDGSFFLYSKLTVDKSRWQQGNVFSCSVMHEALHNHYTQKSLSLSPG
light: DIQMTQSPSSLSASVGDRVTITCRASQDVGTAEAWYQQKPGKAPKLLIYWASTRHTGVPSRFSGSGSGTDFTLTISSLQPEDFATYYCQQYSSYPLTFGQGTKLEIKRTVAAPSVFIFPPSDEQLKSGTASVVCLLNNFYPREAKVQWKVDNALQSGNSQESVTEQDSKDSTYSLSSTLTLSKADYEKHKVYACEVTHQGLSSPVTKSFNRGEC
On to B2, for which, in experiment [1], binding was characterised by a dissociation constant (Kd) of 0.425 nM, the off-rate (koff) was determined as 0.000249 s⁻¹ and the on-rate constant (kon) amounted to 587000 M⁻¹ s⁻¹. In experiment [2], the Kd was determined as 0.0918 nM, the koff is 9.54e-05 s⁻¹ and the kon came to 1.04e+06 M⁻¹ s⁻¹. Further, the “EC50 (µg/mL), inhibition of CD39 ATPase activity on CHOK1-huCD39-10B6 cells (CellTiter Glo)” value in experiment [3] turned out to be 0.187 µg/mL. Moreover, in experiment [4], binding was characterised by a dissociation constant (Kd) of 0.425 nM, the koff worked out at 0.000249 s⁻¹ and the association rate constant (kon) was 587000 M⁻¹ s⁻¹.
